Earlier results, collected in PMC3089658.

Biological target: CD25 (Homo sapiens) (UniProt P01589)
Sequence of UniProt P01589 (P01589 22-240): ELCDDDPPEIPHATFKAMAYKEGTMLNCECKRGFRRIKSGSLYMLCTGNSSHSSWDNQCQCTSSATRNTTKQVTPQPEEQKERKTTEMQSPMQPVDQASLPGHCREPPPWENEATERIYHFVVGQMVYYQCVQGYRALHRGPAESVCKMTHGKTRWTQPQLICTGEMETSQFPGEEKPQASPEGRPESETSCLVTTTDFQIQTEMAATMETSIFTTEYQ

Kd: 10 nM
Substance: IL-2 (from UniProt P60568)
